These results are taken from patent US20190136246A1 (CSIR, published 2019).

Test [1] concerns the target T1, BTV-8 VP7 (SEQ ID NO:6) (Bluetongue virus serotype 8, UniProt P69361 1-349).
T1 sequence: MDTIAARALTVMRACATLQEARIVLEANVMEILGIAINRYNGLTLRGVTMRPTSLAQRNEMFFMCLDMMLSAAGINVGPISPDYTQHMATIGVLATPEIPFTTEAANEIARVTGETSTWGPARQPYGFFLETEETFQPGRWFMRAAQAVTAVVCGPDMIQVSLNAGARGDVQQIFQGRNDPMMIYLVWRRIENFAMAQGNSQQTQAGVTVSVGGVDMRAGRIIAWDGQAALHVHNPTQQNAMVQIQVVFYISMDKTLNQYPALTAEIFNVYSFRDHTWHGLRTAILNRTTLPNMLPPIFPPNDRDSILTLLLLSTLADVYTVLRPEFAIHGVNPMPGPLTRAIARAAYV
As to the kind of experiment: CLP assembly on co-expression; sucrose gradient, TEM (FIG. 13).

Test [2] has as its target T2, BTV-8 VP3 (SEQ ID NO:1) (Bluetongue virus serotype 8, UniProt P12435 1-901).
T2 sequence: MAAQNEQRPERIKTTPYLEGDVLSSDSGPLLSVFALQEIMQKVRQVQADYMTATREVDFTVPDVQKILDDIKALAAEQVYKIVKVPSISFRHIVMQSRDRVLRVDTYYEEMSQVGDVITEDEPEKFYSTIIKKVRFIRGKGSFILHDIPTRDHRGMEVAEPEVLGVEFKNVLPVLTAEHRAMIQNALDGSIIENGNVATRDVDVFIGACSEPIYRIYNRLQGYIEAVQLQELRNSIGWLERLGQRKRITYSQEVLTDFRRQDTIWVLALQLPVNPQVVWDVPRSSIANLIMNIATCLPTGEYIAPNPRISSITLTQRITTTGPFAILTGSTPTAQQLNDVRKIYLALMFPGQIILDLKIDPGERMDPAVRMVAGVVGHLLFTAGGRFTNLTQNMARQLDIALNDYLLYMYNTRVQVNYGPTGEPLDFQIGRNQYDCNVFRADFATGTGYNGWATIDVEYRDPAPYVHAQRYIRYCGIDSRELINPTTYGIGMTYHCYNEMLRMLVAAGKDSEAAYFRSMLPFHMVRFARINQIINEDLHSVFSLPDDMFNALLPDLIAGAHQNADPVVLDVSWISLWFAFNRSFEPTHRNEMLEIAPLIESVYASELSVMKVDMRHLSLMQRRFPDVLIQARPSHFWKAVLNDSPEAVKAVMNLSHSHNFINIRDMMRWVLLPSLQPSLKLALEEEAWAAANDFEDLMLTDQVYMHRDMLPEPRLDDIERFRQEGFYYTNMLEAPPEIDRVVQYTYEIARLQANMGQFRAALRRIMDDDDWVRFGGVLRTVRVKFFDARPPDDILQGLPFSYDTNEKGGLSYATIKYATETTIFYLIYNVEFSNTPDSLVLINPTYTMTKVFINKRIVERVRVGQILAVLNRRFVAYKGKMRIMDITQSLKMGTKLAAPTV
In words: particle assembly on co-expression in N. benthamiana; iodixanol gradient, TEM.

B1: BTV-8 VP3 (SEQ ID NO:2) (other)
chain: MAAQNEQRPERIKTTPYLEGDVLSSDSGPLLSVFALQEIMQKVRQVQADYMTATREVDFTVPDVQKILDDIKALAAEQVYKIVKVPSISFRHIVMQSRDRVLRVDTYYEEMSQVGDVITEDEPEKFYSTIIKKVRFIRGKGSFILHDIPTRDHRGMEVAEPEVLGVEFKNVLPVLTAEHRAMIQNALDGSIIENGNVATRDVDVFIGACSEPIYRIYNRLQGYIEAVQLQELRNSIGWLERLGQRKRITYSQEVLTDFRRQDTIWVLALQLPVNPQVVWDVPRSSIANLIMNIATCLPTGEYIAPNPRISSITLTQRITTTGPFAILTGSTPTAQQLNDVRKIYLALMFPGQIILDLKIDPGERMDPAVRMVAGVVGHLLFTAGGRFTNLTQNMARQLDIALNDYLLYMYNTRVQVNYGPTGEPLDFQIGRNQYDCNVFRADFATGTGYNGWATIDVEYRDPAPYVHAQRYIRYCGIDSRELINPTTYGIGMTYHCYNEMLRMLVAAGKDSEAAYFRSMLPFHMVRFARINQIINEDLHSVFSLPDDVFNALLPDLIAGAHQNADPVVLDVSWISLWFAFNRSFEPTHRNEMLEIAPLIESVYASELSVMKVDMRHLSLMQRRFPDVLIQARPSHFWKAVLNDSPEAVKAVMNLSHSHNFINIRDMMRWVLLPSLQPSLKLALEEEAWAAANDFEDLMLTDQVYMHRDMLPEPRLDDIERFRQEGFYYTNMLEAPPEIDRVVQYTYEIARLQANMGQFRAALRRIMDDDDWVRFGGVLRTVRVKFFDARPPDDILQGLPFSYDTNEKGGLSYATIKYATETTIFYLIYNVEFSNTPDSLVLINPTYTMTKVFINKRIVERVRVGQILAVLNRRFVAYKGKMRIMDITQSLKMGTKLAAPTV
As to B1, in test [1], the binding result is listed as “binds”.

B2: BTV-8 VP7 (SEQ ID NO:5) (other)
chain: MDTIAARALTVMRACATLQEARIVLEANVMEILGIAINRYNGLTLRGVTMRPTSLAQRNEMFFMCLDMMLSAAGINVGPISPDYTQHMATIGVLATPEIPFTTEAANEIARVTGETSTWGPARQPYGFFLETEETFQPGRWFMRAAQAVTAVVCGPDMIQVSLNAGARGDVQQIFQGRNDPMMIYLVWRRIENFAMAQGNSQQTQAGVTVSVGGVDMRAGRIIAWDGQAALHVHNPTQQNAMVQIQVVFYISMDKTLNQYPALTAEIFNVYSFRDHTWHGLRTAILNRTTLPNMLPPIFPPNDRDSILTLLLLSTLADVYTVLRPEFAIHGVNPMPGPLTRAIARAAYV
As to B2, the binding result in test [2] is “binds”.
